According to PMC4339722, “Analysis of the Link between the Redox State and Enzymatic Activity of the HtrA (DegP) Protein from Escherichia coli” (PLoS ONE, 2015):

Molecular target: the molecule itself
Experiment: cross-linking + SEC; with 2.5-, 5- or 10-fold molar excess of the 22-peptide …; HtrA variants 10 μM monomer, 15 min 37°C then 10 h 4°C in 20 mM HEPES-NaOH pH 8.0, 100 mM NaCl; BS^3 0.45 mM, 30 min room temperature; Superose 12 10/300 GL, 25°C

B1: HtrA-S210A (oxidized control variant, as used in cross-linking and SEC) (enzyme, Escherichia coli, UniProt P0C0V0 27-474, looked up)
chain: AETSSATTAQQMPSLAPMLEKVMPSVVSINVEGSTTVNTPRMPRNFQQFFGDDSPFCQEGSPFQSSPFCQGGQGGNGGGQQQKFMALGSGVIIDADKGYVVTNNHVVDNATVIKVQLSDGRKFDAKMVGKDPRSDIALIQIQNPKNLTAIKMADSDALRVGDYTVAIGNPFGLGETVTSGIVSALGRSGLNAENYENFIQTDAAINRGNAGGALVNLNGELIGINTAILAPDGGNIGIGFAIPSNMVKNLTSQMVEYGQVKRGELGIMGTELNSELAKAMKVDAQRGAFVSQVLPNSSAAKAGIKAGDVITSLNGKPISSFAALRAQVGTMPVGSKLTLGLLRDGKQVNVNLELQQSSQNQVDSSSIFNGIEGAEMSNKGKDQGVVVNNVKTGTPAAQIGLKKGDVIIGANQQAVKNIAELRKVLDSKPSVLALNIQRGDSTIYLLMQ
modifications: disulfide bond Cys57-Cys69 (oxidized)
notes: HtrA (DegP) serine protease, Escherichia coli; polypeptide chain of 448 residues as printed; also called oxidized control (S210A); control HtrA
  stoichiometry N: 12
